Consider two substances from US20140088174A1.

For experiment [1], the target named is TGFBR1 (transforming growth factor, beta receptor I), endogenous in mouse cells (mouse) (UniProt Q64729). Nature of the experiment: cell-based or functional assay.
Experiment [2] addresses ACVR1B (activin receptor type-1B), endogenous in mouse cells (mouse) (UniProt Q61271). The experiment is described as follows: cell-based or functional assay.
Chain of UniProt Q61271 (Q61271 24-505): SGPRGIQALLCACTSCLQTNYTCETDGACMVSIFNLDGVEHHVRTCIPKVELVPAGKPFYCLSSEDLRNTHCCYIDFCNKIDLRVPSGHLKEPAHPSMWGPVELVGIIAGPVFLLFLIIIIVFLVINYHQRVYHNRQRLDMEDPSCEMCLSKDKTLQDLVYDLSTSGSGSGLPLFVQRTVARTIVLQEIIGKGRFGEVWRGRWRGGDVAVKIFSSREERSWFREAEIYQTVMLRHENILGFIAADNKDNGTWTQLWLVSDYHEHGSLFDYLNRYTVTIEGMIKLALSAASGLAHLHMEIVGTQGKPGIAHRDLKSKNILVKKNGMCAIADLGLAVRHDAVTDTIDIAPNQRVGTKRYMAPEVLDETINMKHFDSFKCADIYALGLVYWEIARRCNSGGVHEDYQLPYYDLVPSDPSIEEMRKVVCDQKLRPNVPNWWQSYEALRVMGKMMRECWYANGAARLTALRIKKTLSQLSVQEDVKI

Chain of UniProt Q64729 (Q64729 30-503): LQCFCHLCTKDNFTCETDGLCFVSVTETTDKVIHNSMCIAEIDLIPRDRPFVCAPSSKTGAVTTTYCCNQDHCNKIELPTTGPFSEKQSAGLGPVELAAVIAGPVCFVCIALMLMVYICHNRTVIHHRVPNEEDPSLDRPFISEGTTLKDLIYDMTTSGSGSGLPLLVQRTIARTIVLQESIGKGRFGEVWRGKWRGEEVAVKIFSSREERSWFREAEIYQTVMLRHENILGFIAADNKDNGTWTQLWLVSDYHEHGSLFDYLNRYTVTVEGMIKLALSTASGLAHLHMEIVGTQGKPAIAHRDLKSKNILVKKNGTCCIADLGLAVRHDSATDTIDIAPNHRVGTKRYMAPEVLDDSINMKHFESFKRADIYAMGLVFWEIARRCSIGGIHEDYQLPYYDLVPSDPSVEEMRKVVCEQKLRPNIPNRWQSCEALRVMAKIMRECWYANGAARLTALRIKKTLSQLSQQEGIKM

The substance TGF-beta (ligand) displayed a TGF-beta-mediated CAGA luciferase activity in C2C12 and C3H10 T1/2 cells upon siRNA knockdown of TGFBR1 in experiment [1] of 3 folds.

In experiment [2], “myostatin (from UniProt O14793 267-375) (ligand)” gave a myostatin-induced CAGA luciferase in C2C12 cells upon siRNA knockdown of ACVR1B of 5 folds and a myostatin-induced luciferase in C2C12 upon A4E6 AON transfection (fold decrease) of 3. Moreover, in experiment [1], the myostatin-induced CAGA luciferase in C3H10 T1/2 cells upon siRNA knockdown of TGFBR1 was 2.5 folds and the myostatin-induced luciferase in C3H10 T1/2 cells upon TGFBR1 knockdown with A5E2 or A5E6 AON worked out at 50%.
